Measurements: PMC10397247

What was measured:
4H2865-AA = molecular target: T1, 4H2865-AA; assay: two-hybrid library CCmax; details: mean of both orientations;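 note: natural log of median RNA to DNA barcode read ratio; higher means stronger binding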
T1 chain: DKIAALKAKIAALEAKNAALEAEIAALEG

4H3865-AA = molecular target: T2, 4H3865-AA; assay: two-hybrid library CCmax; details: mean of both orientations;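 note: natural log of median RNA to DNA barcode read ratio; higher means stronger binding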
T2 chain: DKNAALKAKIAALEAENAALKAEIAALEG

4H3753-AA = molecular target: T3, 4H3753-AA; assay: two-hybrid library CCmax; details: mean of both orientations;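 note: natural log of median RNA to DNA barcode read ratio; higher means stronger binding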
T3 chain: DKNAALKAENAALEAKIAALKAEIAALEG

4H2725-AA = molecular target: T4, 4H2725-AA; assay: two-hybrid library CCmax; details: mean of both orientations;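 note: natural log of median RNA to DNA barcode read ratio; higher means stronger binding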
T4 chain: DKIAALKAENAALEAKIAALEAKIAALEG

4H909-AA = molecular target: T5, 4H909-AA; assay: two-hybrid library CCmax; details: mean of both orientations;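 note: natural log of median RNA to DNA barcode read ratio; higher means stronger binding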
T5 chain: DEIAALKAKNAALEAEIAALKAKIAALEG

4H458-AA = molecular target: T6, 4H458-AA; assay: two-hybrid library CCmax; details: mean of both orientations;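 note: natural log of median RNA to DNA barcode read ratio; higher means stronger binding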
T6 chain: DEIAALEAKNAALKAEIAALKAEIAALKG

4H536-AA = molecular target: T7, 4H536-AA; assay: two-hybrid library CCmax; details: mean of both orientations
T7 chain: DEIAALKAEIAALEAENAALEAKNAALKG

4H2649-AA = molecular target: T8, 4H2649-AA; assay: two-hybrid library CCmax
T8 chain: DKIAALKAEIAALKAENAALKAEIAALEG

4H891-AA = molecular target: T9, 4H891-AA; assay: two-hybrid library CCmax; details: mean of both orientations
T9 chain: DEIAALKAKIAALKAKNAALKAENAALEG

4H3120-AA = molecular target: T10, 4H3120-AA; assay: two-hybrid library CCmax; details: mean of both orientations
T10 chain: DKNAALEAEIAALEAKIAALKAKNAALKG

4H3395-AA = molecular target: T11, 4H3395-AA; assay: two-hybrid library CCmax; details: mean of both orientations
T11 chain: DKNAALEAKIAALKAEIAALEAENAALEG

4H570-AA = molecular target: T12, 4H570-AA; assay: two-hybrid library CCmax; details: mean of both orientations
T12 chain: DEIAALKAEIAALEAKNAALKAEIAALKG

4H850-AA = molecular target: T13, 4H850-AA; assay: two-hybrid library CCmax; details: mean of both orientations
T13 chain: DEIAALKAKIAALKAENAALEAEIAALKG

4H745-AA = molecular target: T14, 4H745-AA; assay: two-hybrid library CCmax; details: mean of both orientations
T14 chain: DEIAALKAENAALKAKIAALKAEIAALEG

4H3165-AA = molecular target: T15, 4H3165-AA; assay: two-hybrid library CCmax; details: mean of both orientations
T15 chain: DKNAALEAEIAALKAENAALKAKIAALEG

4H797-AA = molecular target: T16, 4H797-AA; assay: two-hybrid library CCmax; details: mean of both orientations
T16 chain: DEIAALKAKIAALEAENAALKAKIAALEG

4H710-AA = molecular target: T17, 4H710-AA; assay: two-hybrid library CCmax; details: mean of both orientations
T17 chain: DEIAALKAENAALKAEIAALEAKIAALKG

4H629-AA = molecular target: T18, 4H629-AA; assay: two-hybrid library CCmax; details: mean of both orientations
T18 chain: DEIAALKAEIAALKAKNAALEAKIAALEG

4H485-AA = molecular target: T19, 4H485-AA; assay: two-hybrid library CCmax; details: mean of both orientations
T19 chain: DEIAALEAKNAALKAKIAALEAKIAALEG

4H3016-AA = molecular target: T20, 4H3016-AA; assay: two-hybrid library CCmax; details: mean of both orientations
T20 chain: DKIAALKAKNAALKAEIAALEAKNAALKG

4H3130-AA = molecular target: T21, 4H3130-AA; assay: two-hybrid library CCmax; details: mean of both orientations
T21 chain: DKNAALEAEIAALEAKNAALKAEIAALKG

4H930-AA = molecular target: T22, 4H930-AA; assay: two-hybrid library CCmax; details: mean of both orientations
T22 chain: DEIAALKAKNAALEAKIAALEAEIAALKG

4H2698-AA = molecular target: T23, 4H2698-AA; assay: two-hybrid library CCmax; details: mean of both orientations
T23 chain: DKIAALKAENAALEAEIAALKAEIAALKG

4H94-AA = molecular target: T24, 4H94-AA; assay: two-hybrid library CCmax; details: mean of both orientations
T24 chain: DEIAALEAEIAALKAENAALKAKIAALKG

4H3590-AA = molecular target: T25, 4H3590-AA; assay: two-hybrid library CCmax; details: mean of both orientations
T25 chain: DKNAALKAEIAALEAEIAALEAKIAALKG

4H3009-AA = molecular target: T26, 4H3009-AA; assay: two-hybrid library CCmax; details: mean of both orientations
T26 chain: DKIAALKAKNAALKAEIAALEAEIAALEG

4H310-AA = molecular target: T27, 4H310-AA; assay: two-hybrid library CCmax; details: mean of both orientations
T27 chain: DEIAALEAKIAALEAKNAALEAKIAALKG

4H3410-AA = molecular target: T28, 4H3410-AA; assay: two-hybrid library CCmax; details: mean of both orientations
T28 chain: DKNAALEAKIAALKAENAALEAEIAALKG

4H3697-AA = molecular target: T29, 4H3697-AA; assay: two-hybrid library CCmax; details: mean of both orientations
T29 chain: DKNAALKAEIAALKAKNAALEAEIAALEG

4H3381-AA = molecular target: T30, 4H3381-AA; assay: two-hybrid library CCmax; details: mean of both orientations
T30 chain: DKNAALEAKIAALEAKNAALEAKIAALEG

4H883-bH = molecular target: T31, 4H883-bH; assay: two-hybrid library CCNG1
T31 chain: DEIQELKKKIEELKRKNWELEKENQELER

4H908-bH = molecular target: T32, 4H908-bH; assay: two-hybrid library CCNG1
T32 chain: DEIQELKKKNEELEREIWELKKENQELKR

4H918-bH = molecular target: T33, 4H918-bH; assay: two-hybrid library CCNG1
T33 chain: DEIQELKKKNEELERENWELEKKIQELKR

4H953-bH = molecular target: T34, 4H953-bH; assay: two-hybrid library CCNG1
T34 chain: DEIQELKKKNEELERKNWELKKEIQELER

4H780-bH = molecular target: T35, 4H780-bH; assay: two-hybrid library CCNG1
T35 chain: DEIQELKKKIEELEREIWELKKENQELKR

4H797-bH = molecular target: T36, 4H797-bH; assay: two-hybrid library CCNG1
T36 chain: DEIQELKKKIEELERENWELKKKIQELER

4H967-bH = molecular target: T37, 4H967-bH; assay: two-hybrid library CCNG1
T37 chain: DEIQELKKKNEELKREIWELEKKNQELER

4H855-bH = molecular target: T38, 4H855-bH; assay: two-hybrid library CCNG1
T38 chain: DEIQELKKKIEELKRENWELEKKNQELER

4H754-bH = molecular target: T39, 4H754-bH; assay: two-hybrid library CCNG1
T39 chain: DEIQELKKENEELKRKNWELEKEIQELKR

4H968-bH = molecular target: T40, 4H968-bH; assay: two-hybrid library CCNG1
T40 chain: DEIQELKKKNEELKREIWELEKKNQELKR

4H477-bN = molecular target: T41, 4H477-bN; assay: two-hybrid library CCNG1
T41 chain: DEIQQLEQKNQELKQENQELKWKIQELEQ

4H741-bN = molecular target: T42, 4H741-bN; assay: two-hybrid library CCNG1
T42 chain: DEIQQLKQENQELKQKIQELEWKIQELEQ

4H932-bN = molecular target: T43, 4H932-bN; assay: two-hybrid library CCNG1
T43 chain: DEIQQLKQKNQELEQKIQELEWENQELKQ

4H492-bN = molecular target: T44, 4H492-bN; assay: two-hybrid library CCNG1
T44 chain: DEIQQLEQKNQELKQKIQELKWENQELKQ

B1: 4H2649-AA (peptide)
chain: DKIAALKAEIAALKAENAALKAEIAALEG
With B1 the interaction score (4H2865-AA) was -1.38, the interaction score (4H3865-AA) was -1.59 and the interaction score (4H3753-AA) was -1.64. It also gave an interaction score (4H2725-AA) of 0.985, an interaction score (4H909-AA) of -1.6 and an interaction score (4H458-AA) of -1.33. For the same binder, the interaction score (4H536-AA) was 0.807, the interaction score (4H2649-AA) was 0.376 and the interaction score (4H891-AA) was -1.86. For the same binder, the interaction score (4H3120-AA) was -1.41, the interaction score (4H3395-AA) was -1.27 and the interaction score (4H570-AA) was 1.86. The interaction score (4H850-AA) was 1.99, the interaction score (4H745-AA) was -0.16 and the interaction score (4H3165-AA) was 1.07. For the same binder, the interaction score (4H797-AA) was 0.345, the interaction score (4H710-AA) was -1.42 and the interaction score (4H629-AA) was -0.681. The interaction score (4H485-AA) was -1.19, the interaction score (4H3016-AA) was -1.64 and the interaction score (4H3130-AA) was -0.528. The interaction score (4H930-AA) was -0.569, the interaction score (4H2698-AA) was -1.14 and the interaction score (4H94-AA) was 2.21. For the same binder, the interaction score (4H3590-AA) was -0.789, the interaction score (4H3009-AA) was -0.366 and the interaction score (4H310-AA) was -0.563. For the same binder, the interaction score (4H3410-AA) was -0.287, the interaction score (4H3697-AA) was -1.81 and the interaction score (4H3381-AA) was -1.34.

B2: 4H754-bH (peptide)
chain: DEIQELKKENEELKRKNWELEKEIQELKR
In the case of B2, the interaction score (4H883-bH) is reported as -0.29, the interaction score (4H908-bH) is reported as 0.329 and the interaction score (4H918-bH) is reported as 0.604. For the same binder, the interaction score (4H953-bH) was 0.539, the interaction score (4H780-bH) was -0.00466 and the interaction score (4H797-bH) was -0.0415. The interaction score (4H967-bH) was -0.713, the interaction score (4H855-bH) was -0.362 and the interaction score (4H754-bH) was 1.36. It also gave an interaction score (4H968-bH) of -0.182.

B3: 4H477-bN (peptide)
chain: DEIQQLEQKNQELKQENQELKWKIQELEQ
B3 was tested, and the interaction score (4H477-bN) was -1.14, the interaction score (4H741-bN) was -1.17 and the interaction score (4H932-bN) was -0.0984. For the same binder, the interaction score (4H492-bN) was -0.94.
